Results published in publication PMC4354016, “Centromeric binding and activity of Protein Phosphatase 4” (Nature Communications, 2015).
Each block holds one binder with its values, some of them ahead of it.

Key:
Conditions in all cases: both partners purified
[1] = biological target: T1, recombinant Flfl^1–168 (untagged) (Drosophila melanogaster, UniProt Q9VFS5 1-168); experiment: peptide or protein array; substitution array: every residue of the 19-mer FIM replaced by the other amino acids, on cellulose membrane; 100 nM untagged Flfl^1–168, 4 °C overnight; anti-Flfl detection
T1 construct: pETDuet-1 (MCS1), TEV site between His tag and Flfl; source: E. coli Rosetta2(DE3)pLysS, purified (Ni-NTA, TEV cleavage, re-incubation with Ni-NTA); not shown: 6xHis, N-terminal, cleaved
T1 sequence (looked up): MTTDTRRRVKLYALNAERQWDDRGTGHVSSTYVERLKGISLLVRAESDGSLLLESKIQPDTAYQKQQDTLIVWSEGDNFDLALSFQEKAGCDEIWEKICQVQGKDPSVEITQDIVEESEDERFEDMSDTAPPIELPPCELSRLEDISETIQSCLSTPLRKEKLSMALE

Flfl^1–122 = biological target: T2, Flfl^1–122 (Drosophila melanogaster, UniProt Q9VFS5 1-122); experiment: crystal structure; Flfl^1–122 at 22 mg/ml incubated overnight with FIM peptide 1:1.3, sitting drop, ammonium sulfate; 1.5 Å
T2 construct: Falafel (Flfl) residues 1-122, holds the EVH1 domain; residues 4-114 are in the final model; also called Falafel (1–122); His::TEV::Flfl^1–122aa; source: E. coli BL21 (DE3) RIL, purified (HisTrap, TEV cleavage, anion exchange, SEC); not shown: 6xHis, N-terminal, cleaved
T2 sequence (looked up): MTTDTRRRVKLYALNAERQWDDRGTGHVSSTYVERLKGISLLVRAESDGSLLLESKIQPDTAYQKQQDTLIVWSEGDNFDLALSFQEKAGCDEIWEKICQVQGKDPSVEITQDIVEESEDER

[2] = biological target: T1, recombinant Flfl^1–168 (untagged); experiment: SEC; Flfl^1–168 and CENP-C^FBD mixed ~1:1 molar ratio, 16 h on ice, Superdex 200; fractions on SDS-PAGE, Coomassie

binding result [1]: binds
binding result (Flfl^1–122): binds
B1: CENP-C^FIM peptide (peptide)
peptide: PDESSADVVFKKPLAPAPR
notes: source: synthetic peptide (in solution for crystallisation; spotted onto a cellulose membrane for the substitution array)

binding result [2]: binds
B2: recombinant CENP-C^FBD (untagged) (domain or fragment, Drosophila melanogaster, UniProt Q9VHP9 1002-1093, looked up)
chain: IDQNSDDVPSRNPSPSRTLLSDDVPSTSRAALEFLQRSQNMSKSRPPDESSADVVFKKPLAPAPRAKSKKGKSEVDKLKLAKMPVEAEELNT
notes: pETDuet-1 (MCS1), TEV site between His tag and FBD; also called His::TEV::CENP-C^FBD; source: E. coli Rosetta2(DE3)pLysS, purified (Ni-NTA, TEV cleavage, re-incubation with Ni-NTA); not shown: 6xHis, N-terminal, cleaved
